In the DeepSol protein solubility set:

Assay: soluble on expression in E. coli; label from the status in PepcDB or PDB records

Row | Sequence | soluble on expression in E. coli
1 | MSLESILDVLSVMYINAQLPREQRHRWRLLFSSELHGHSFSQLCGHITHRGPCVAVLEDHDKHVFGGFASCSWEVKPQFQGDNRCFLFSICPSMAVYTHTGYNDHYMYLNHGQQTIPNGLGMGGQHNYFGLWVDVDFGKGHSRAKPTCTTYNSPQLSAQENFQFDKMEVWAVGDPSEEQLAKGNKSILDADPEAQALLEISGHSRHSEGLREVPDDEGHHHHHH | not soluble
2 | MAMNLRKNQAPLYIKVHEIDNTAIIVNDGGLPKGTVFSCGLVLEEDVPQGHKVALTDLNQGDEIVRYGEVIGFADETIKRGSWIREALVRMPAP | not soluble
3 | MSSIRVVALDWRYEEILHALGITPVGIVEIGKSKEPQTLKGELEGVTSVGQAKQPNLEVIQSLEPDLILASPTRQAAIMDQLKEIAPTHAYGDTSYTEVLDAMDDIATKVGAEDKAKEVRTRIESKIAQAKNKVEPGTRTALIGWSKNTLYTWVKDSFAGSLLTAAGYEYGYDGEKSAIESKTDVAELTGDKLPEMKLDVMYLYNDIEGFRSSPYADVVSNIVDVEQDTWSRSRGPLAAEAMLDQIINSLEHHHHHH | soluble
4 | MLNSVKKLLGDSQKRKLKKYEQLVQEINNLEEKLSDLSDEELRHKTITFKDMLRDGKTVDDIKVEAFAVVREAAKRVLGLRHYDVQLIGGLVLLEGNIAEMPTGEGKTLVSSLPTYVRALEGKGVHVITVNDYLAKRDKELIGQVHEFLGLKVGLNIPQIDPSEKKLAYEADITYGIGTEFGFDYLRDNMAASKNEQVQRPYHFAIIDEIDSVLIDEAKTPLIIAGKKSSSSDLHYLCAKVIKSFQDTLHYTYDAESKSASFTEDGITKIEDLFDIDNLYDLEHQTLYHYMIQALRAHVAFQCDVDYIVHDEKILLVDIFTGRVMDGRSLSDGLHQALEAKEGLEITEENQTQASITIQNFFRMYPALSGMTGTAKTEEKEFNRVYNMEVMPIPTNRPIIREDKKDVVYVTADAKYKAVREDVLKHNKQGRPILIGTMSILQSETVARYLDEANITYQLLNAKSAEQEADLIATAGQKGQITIATNMAGRGTDILLGEGVHELGGLHVIGTERHESRRVDNQLKGRAGRQGDPGSSQFFLSLEDEMLKRFAQEEVEKLTKSLKTDETGLILTSKVHDFVNRTQLICEGSHFSMREYNLKLDDVINDQRNVIYKLRNNLLQEDTNMIEIIIPMIDHAVEAISKQYLVEGMLPEEWDFASLTASLNEILSVENMPSLSANNVHSPEDLQSVLKETLSLYKERVNELDSNTDLQQSLRYVALHFLDQNWVNHLDAMTHLKEGIGLRQYQQEDPTRLYQKEALDIFLYTYGNFEKEMCRYVARHLGVPENVQ | not soluble
5 | MDRTTGKPLVGIEHLRQSIIDILSTRIGTRVMRRDYGSRIAELIDAPVNSSFSIALYAAVAEALDKWEPRFKLKKIDFKMLGTGQVSLSFEGMYLPSGKPITMEGLLIQ | not soluble
6 | TTGSDGKATFDVTQNETYGLATPLTATLMRDTTKSATMDVIFTVITSPNSPKAKYWGHMPDTFTSRAGVTFKRPLLAAEATLGSSVSNNNESWSYLFYTNKVTPDCPVEYQPRLNELQGLYNDHPGGTILTDLGLPITAGSGNWWTYEMSTTDALTWYYGVINLKTGQSTTTINGYALMLCL | not soluble
7 | MADNDFLSGEAIMVFKKEILDSHSDFTRSLSHQSASPEAYDQENVFSQDFQPFMKQDKETQNSASQPTSEQSLANRDPCTVPDDLREEMMRQRRKEDAFKTALCDAYKRSQACSYGDQCRFAHGVHELRLPMNPRGRNHPKYKTVLCDKFSMTGNCKYGTRCQFIHKIVDGNAAKLASGAHANTSSKSPARNAAAHNHSLFVPQGSTDRSMDLNQSLPIRQSDLVRAFARATRLDVSGYNSTAQLAQYFESQFQRIQQLSSHHH | not soluble
8 | MGSDKIHHHHHHMLVQGFEEDLAFLGWIALTLGSNPLVPYVPTRPELIPKILELLDLKEDDVFYDLGCGDGRVVIEAVKKTRVKKAVCVETRDDLVKEARKKAEEEGVSDRIEFINNDFFKTPLKDATAVYMYLLTSVNESLKPKLARELRDGTRIVTLDFPIPGWKPVKVETATTGWQRSLYLYVKGVSDRA | not soluble
9 | WQFTPNTGGNTITKVEAENMKIGGTYAGKISAPFDGVALYANADYVSYSQYFANSTHNISVRGASSNAGTAKVDLVIGGVTVGSFNFTGKTPTVQTLSNITHATGDQEIKLALTSDDGTWDAYVDFIEFSL | soluble
10 | MGSDKIHHHHHHMLPSQRHAFSIPEDVIYLDAAYMSPIPNIATEAGCDGVLVKAAPWDMTINSYYDEVERVRELAASFVGASIDDVGVIPATSYGIAVAAANVHVTPGSVIMMMDNEHTSHRYAWYELAEKKGATVVTVPRRPDQEWGSALAAAIKGSTVPVSVVAGTIVHWFEGMSVDIEVVADAAHAVGAALVMDGTQWVGAVPFDVSRIRPDFLSFATYKFLLGPYRLAFLYADKKWQEAGKPIEFHSWNRKGGERPDFYLETMPDYLPGARRFDMGERSDFAVLPIAIRSLELLQSWGSTAVFERLVHLNELIWKEAEARGFEGPRKDLRAPHISVIELGQRFRPDFARNLKDNKAFVTVRGTKMRITPHVYNEEHDIRRLFELVDSLTR | not soluble
11 | MATGKGEYHMGNTMTKAIYDKFKVATPYGNKVATGAIPAEAVNIAVKVGGFKVGDQNYPINPKITFTNNTGIDIPGGTEFQFDIPVSAPDNAKDQSGGGLKVIASGHTRANNIGGLDGTMHRVAFSLPAWKSLPAGATYELDMVYYLPISGPANYTVKINNVEYAFSFEQPDLPVADLTALEHHHHHH | soluble
12 | MNGCKQSASKVFKLVGGFNKASSRCFSSEKLIPKDLKIVKNPTSEQIKQFQKLVGDFNDIKLLKETMKDNYQLYLLCHKDSTVLSGTQSITYKSLNRSIPDFQTFGLSYQPDNTYNLLPHLMHEMATDFKSVKMNSGGCVDSKYAAVWRKVLHTKVRGPTYYVSHYKPDEVFNPELEFDDVVVKKFSDVPVEHVVKYDNSIFPYERKEYILAKFKNGVGRVAYNKSGEVIGIGLVSTESSGNCEIGPIYCDNKNAAQAIFQSIIQDLPMKDLKDVLVRCSDKFEDSATWIRPFLRRSHEMTPFAHIKFNRVIPDGLNFSKVFVSSNPSNAPC | not soluble
13 | GMDKLVKYQELVKKLLTNYASDDVSDQDVEVQLILDTERNHYQWMNVGWQGLNRIYRCVIHFDIKDGKIWLQQNLTDRNPAEELVMMGVPREDIVLGLQAPYKRQYTDYGVA | soluble
14 | METFRTLLAKAALGNGISSTAYDTAWVAKLGQLDDELSDLALNWLCERQLPDGSWGAEFPFCYEDRLLSTLAAMISLTSNKHRRRRAAQVEKGLLALKNLTSGAFEGPQLDIKDATVGFELIAPTLMAEAARLGLAICHEESILGELVGVREQKLRKLGGSKINKHITAAFSVELAGQDGVGMLDVDNLQETNGSVKYSPSASAYFALHVKPGDKRALAYISSIIQAGDGGAPAFYQAEIFEIVWSLWNLSRTDIDLSDPEIVRTYLPYLDHVEQHWVRGRGVGWTGNSTLEDCDTTSVAYDVLSKFGRSPDIGAVLQFEDADWFRTYFHEVGPSISTNVHVLGALKQAGYDKCHPRVRKVLEFIRSSKEPGRFCWRDKWHRSAYYTTAHLICAASNYDDALCSDAIGWILNTQRPDGSWGFFDGQATAEETAYCIQALAHWQRHSGTSLSAQISRAGGWLSQHCEPPYAPLWIAKTLYCSATVVKAAILSALRLVDESNQ | not soluble
15 | MTEEILKQGVGIVETSLTFEPPFCESFERISIDNFPIFALGKEISKEDGIEAMKKYVTSRFWFTYRRDFSPIGGTGPSTDQGWGCMLRCAQMLLGEVLLRRHIGRHFEWDIEKTSEIYEKILQMFFDEKDALYSIHQIAQMGVTEGKEVSKWFGPNTAAQVMKKLTIFDDWSNIAVHVALDNILVKEDAITMATSYPSEDAVKLIMGKKGLQTTKRKNRKNLDFTVKYLKQIKFFKFFNLFQIFYENGLVDKNRLSLSPGNIIPEWRPLLLMIPLRLGLTTINPCYLSAIQEFFKIPQCVGIIGGRPNHALYFVGMSGSKLFYLDPHYCRPKTESTAKMYAEKDSTATTDDVGFSHLEELVPLPSQTADVYTKMDDSTYHCQMMLWIEYENVDPSLALAMFCETRDEFENLCETLQKTTLPASQPPMFEFLQRRPKYLPKFEPYTGVSMKIEMKEFDDIGAANVKIDDDFEVLDVHTEEEDADEDNDDDVANA | not soluble
16 | NLMYYGTFIIDNPVKKGAEKFIAQCREISVPVFVATGDTTKAAENIAKVLCPANAGKIVTLRADQIDEKGIEFLNEENYPSDSTVIFSGINEAILNRFQKLMGREGAKRPVVIFAEMSTEGKGVLARYLKDHHYFVVANGDGTNDVMMMKNSNVVIAHHSDDGTFAPGVDGLTN | not soluble
